Assay results reported in US20230365684A1 (Janssen / Centocor, published 2023).
Where two headings read alike, the source gives them in different places.

What was measured:
[1] = biological target: T1, human CD33 (full length ECD), recombinant (human, UniProt P20138 18-259); assay: SPR (Biacore 8K), antibody captured by anti-human Fc, antigen in solution
T1 construct: extracellular domain; Tag or HSA fusion partner unknown; also called hu CD33 (FL ECD); hCD33-FL ECD
Experimental: (§1) Affinities (KD) for the interaction of anti-CD33 antibodies human CD33 (full length ECD and IgC2 domain) were obtained by SPR. The anti-CD33 antibodies were captured using an anti-human Fc antibody and the antigens were injected in solution.
(§2) The binding affinity of anti-CD33 antibodies and Llama vHHs to the recombinant human CD33 (FL ECD or IgC2 domain) was determined by surface plasmon resonance (SPR) using Biacore 8K instrument. […] The association and dissociation were monitored for 2 and 30 minutes, respectively, using a flow rate of 50 μL/min. Raw binding data was referenced by subtracting the analyte binding signals from blanks and analyzed using a 1:1 Langmuir binding model using the Biacore software to obtain the kinetics which were used to calculate the binding affinity.

[2] = biological target: T2, human CD33 IgC2 domain, recombinant (human, UniProt P20138 136-259); assay: as above
T2 construct: domain: IgC2; also called hu CD33 (IgC2); hCD33-IgC2
T2 sequence (P20138 136-259 limits assumed): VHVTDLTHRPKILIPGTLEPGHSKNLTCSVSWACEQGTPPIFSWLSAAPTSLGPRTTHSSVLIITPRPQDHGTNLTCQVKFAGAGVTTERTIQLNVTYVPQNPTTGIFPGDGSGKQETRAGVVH
Experimental: as §1, §2

[3] = biological target: T3, human CD33 on cells (MOLM-13, Kasumi-1, OCI-AML-3, Kasumi-3) (human, UniProt P20138 18-364); assay: flow cytometry on OCI-AML-3 cells, 4 °C, serial dilutions of the antibody
T3 construct: whole, on cells; also called CD33 expressing cells; CD33+ cell lines
T3 sequence (P20138 18-364): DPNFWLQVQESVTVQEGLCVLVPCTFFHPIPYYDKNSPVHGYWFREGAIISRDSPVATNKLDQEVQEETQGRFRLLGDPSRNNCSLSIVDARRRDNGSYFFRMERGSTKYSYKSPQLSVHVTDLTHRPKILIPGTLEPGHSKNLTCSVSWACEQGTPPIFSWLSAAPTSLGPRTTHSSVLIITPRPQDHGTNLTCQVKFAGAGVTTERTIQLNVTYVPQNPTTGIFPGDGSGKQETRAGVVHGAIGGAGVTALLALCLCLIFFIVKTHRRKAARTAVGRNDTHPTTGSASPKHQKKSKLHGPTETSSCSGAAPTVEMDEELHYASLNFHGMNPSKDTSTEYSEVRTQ
Experimental: (§3) Cells were harvested, washed once with PBS and then stained with the fixable viability dye at room temperature for 30 min. Following incubation, cells were washed twice with FACS buffer (PBS+2% FBS). Cells were then used for binding assay with test antibodies. 100,000 cells were stained with the test antibodies in a 100 ul staining volume. Antibodies for staining were diluted in FACS buffer and incubated with the cells for 40 mins on ice, followed by washing 2X with FACS buffer. Test antibodies were then detected using the PE conjugated Goat F(ab′)2 Anti-Human IgG-Fc (ab98596; Abcam) for 40 minutes on ice. Following washing, data was acquired on the Novocyte flow cytometer (ACEA). Cells were gated on FSC/SSC, followed by live cell gating and doublet discrimination. Data was analyzed using Flow Jo (BD).
(§4) Median fluorescence intensity values were used to plot a 4-parameter non-linear regression analysis curve after subtracting the MFI of the secondary only sample.
(§5) The binding EC₅₀ values of CD33 antibodies to high (MOLM-13), medium (Kasumi-1) and low (OCI-AML-3) cell lines were assayed. Binding was carried out at 4° C. with serial dilutions of the antibody.

[4] = biological target: T3, human CD33 on cells (MOLM-13, Kasumi-1, …); assay: flow cytometry on MOLM-13 cells, 4 °C, serial dilutions of the antibody
Experimental: as §3, §4, §5

[5] = biological target: T3, human CD33 on cells (MOLM-13, Kasumi-1, …); assay: flow cytometry on Kasumi-1 cells, 4 °C, serial dilutions of the antibody
Experimental: as §3, §4, §5

[6] = biological target: T3, human CD33 on cells (MOLM-13, Kasumi-1, …); assay: flow cytometry on MOLM-13 cells, 4 °C, detection with PE goat F(ab')2 anti-human IgG-Fc
Experimental: MOLM-13, Kasumi-1, OCI-AML-3 and HDLM-2 cells were stained for viability by fixable violet dead cell stain (L34955, ThermoFisher) according to the manufacturer's protocol. Cells were harvested, washed once with PBS and then stained with the fixable viability dye at room temperature for 30 min. Following incubation, cells were washed twice with FACS buffer (PBS+2% FBS). Cells were then used for binding assay with test antibodies. 100,000 cells were stained with the test antibodies in a 100 ul staining volume. Antibodies for staining were diluted in FACS buffer and incubated with the cells for 40 mins on ice, followed by washing 2X with FACS buffer. Test antibodies were then detected using the PE conjugated Goat F(ab′)2 Anti-Human IgG-Fc (ab98596; Abcam) for 40 minutes on ice. Following washing, data was acquired on the Novocyte flow cytometer (ACEA). […] Data was analyzed using Flow Jo (BD).
as §4
Binding was performed by incubating the cells with the serial dilutions of the CD33 antibody at 4° C. followed by detection with PE conjugated Goat F(ab′)2 Anti-Human IgG-Fc antibody. […] Median fluorescence intensity (MFI) versus log concentration of antibody are plotted.

[7] = biological target: T3, human CD33 on cells (MOLM-13, Kasumi-1, …); assay: flow cytometry on OCI-AML-3 cells, 4 °C, detection with PE goat F(ab')2 anti-human IgG-Fc [contd]
[8] = biological target: T1, human CD33 (full length ECD), …; assay: SPR (Biacore 8K), vHH-mono-Fc captured by anti-human Fc, antigen in solution
Experimental: as §2
(§6) The anti-CD33 Llama vHHs on a mono-Fc backbone were captured using an anti-human Fc antibody and the antigens were injected in solution.

[9] = biological target: T2, human CD33 IgC2 domain, recombinant; assay: as above
Experimental: as §2, §6

[10] = biological target: T1, human CD33 (full length ECD), …; assay: SPR, Biacore 8K, 25 °C, vHH-mono-Fc captured by anti-Fc antibody, CD33-hu-FL injected as analyte, 1:1 binding model [contd]
Experimental: as §2, §6

[11] = biological target: T2, human CD33 IgC2 domain, recombinant; assay: SPR, Biacore 8K, 25 °C, vHH-mono-Fc captured by anti-Fc antibody, CD33-hu-domain injected as analyte, 1:1 binding model
Experimental: as §2, §6

[12] = biological target: T2, human CD33 IgC2 domain, recombinant; assay: SPR, Biacore 8K, 25 °C, vHH-mono-Fc captured by anti-Fc antibody, CD33-hu-domain injected as analyte, 1:1 binding model [contd]
Experimental: as §2, §6

[13] = biological target: T1, human CD33 (full length ECD), …; assay: SPR, Biacore 8K, 25 °C, vHH-mono-Fc captured by anti-Fc antibody, CD33-hu-FL injected as analyte, 1:1 binding model [contd]; remark: listed apart in the source
Experimental: as §2, §6

[14] = biological target: T3, human CD33 on cells (MOLM-13, Kasumi-1, …); assay: flow cytometry on MOLM-13 cells, 4 °C, detection with PE goat F(ab')2 anti-human IgG-Fc; remark: listed apart in the source

T1 sequence (P20138 18-259): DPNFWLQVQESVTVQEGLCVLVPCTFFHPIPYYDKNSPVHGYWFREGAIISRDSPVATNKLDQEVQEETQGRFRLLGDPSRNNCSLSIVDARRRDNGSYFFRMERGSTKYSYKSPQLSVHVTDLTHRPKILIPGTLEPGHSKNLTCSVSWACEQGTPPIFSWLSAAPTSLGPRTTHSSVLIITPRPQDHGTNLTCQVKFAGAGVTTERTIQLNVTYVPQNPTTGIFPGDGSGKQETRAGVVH

Binder	Kd [1] [nM]	EC50 [3] [nM]	EC50 [4] [nM]	Kd [8] [nM]	Kd [9] [nM]	further results
C33B1474 (antibody, V domains shown) VH: QVQLVESGGGLVQPGGSLRLSCAASGFTFSSFGMSWVRQAPGKGLEWVANIKRDGSEKYYVDSVKGRFTISRDNAKNSLFLQMSSLRAEDTAVYYCVRDYGYFDFWGQGTLVTVSS VL: DIQMTQSPSSLSASVGDRVTITCQASQAISNYLNWYQQKPGKAPKLLIYDASNLETGVPSRFSGSGSGTDFTFTISSLQPEDFSTYFCQHYDNLPYTFGQGTKLEIK	2.47	1.26	78.4	–	–	Kd [2]: 3.99 nM
C33B836.006 (antibody, V domains shown, also called sC33B836.006) VH: QVQLVQSGSELRKPGASVKVSCKASGYTFTNYAMNWVRQAPGQGLEWMGWINTNTGNPTYAQGFTGRFVFSLDTSVSSAYLQISSLKAEDTAMYYCATDRDRGTDYWGQGTLVTVSS VL: QSALTQPASVSGSPGQSITISCTGTSSDVGDYNYVSWYQQHPGKVPKLMIYDVSNRPSGVSNRFSGSMSGNTASLTISGLQAEDEADYYCSSYSSSSALEVFGGGTKLTVL	–	0.46	0.5	–	–	EC50 [5]: 17.1 nM; EC50 (read off the curve) [6]: ~0.08 µg/mL; EC50 (read off the curve) [7]: ~0.08 µg/mL
C33B1788 (llama vHH on mono-Fc backbone) (Fc fusion, not shown: mono-Fc backbone) QVQLVESGGGLVQPGGSLRLSCAVFGFSLSDYAIGWFRQAPGKEREKVSCISESDGRTYLSDSVKSRFTISRDNGKNTVYLQMNNLKPDDTGVYYCATVDQAISESSYHCEKGFGSWGQGTQVTVSS	–	–	–	0.707	4.34	–
C33B1478 (antibody, V domains shown, In the FIG. 3 assay the antibody carried Alexa Fluor 647 (p-1610); the site is not given and the letters do not carry it., also called sCD33B1478) VH: EVQLVESGGGLVQPGGSLKVSCEASGFTFSVSAIHWVRQASGKGLEWIGRIRSKGNSYATAYDVSVKGRFTISRDDSKNTAYLQMDSLKTEDTAVYYCTRHNDKWNYYGLDVWGQGTTVTVSS VL: DIVMTQSPLSLPVTPGEPASISCKSSQSLLFSNGYKFLDWYLQRPGQSPQLLIYLGSYRASGVPDRFSGSGSGTDFTLKISRVEAEDVGLYYCMQALQTPPTFGGGTKVEIK	–	–	–	–	–	binding result [14]: binds
C33B1476 (antibody, V domains shown, also called sCD33B1476) VH: EVQLVESGGGLVQPGGSLKVSCEASGFTFSVSAIHWVRQASGKGLEWIGRIRSKGNSYATAYNVSVKGRFTISRDDSKNTAYLQMDSLKTEDTAVYYCTRHNDKWNYYGLDVWGQGTTVTVSS VL: DIVMTQSPLSLPVTPGEPASISCKSSQSLLFSNGYKFLDWYLQRPGQSPQLLIYLGSYRASGVPDRFSGSGSGTDFTLKISRVEAEDVGLYYCMQALQTPPTFGGGTKVEIK	–	0.8	–	–	–	–
C33B1484 (antibody, V domains shown, also called sCD33B1484) VH: EVQLVESGGGLVQPGGSLKVSCEASGFTFSVFAIHWVRQASGKGLEWIGRIRSKGNSYATAYDVSVKGRFTISRDDSKNTAYLQMDSLKTEDTAVYYCTRHNDKWNYYGLDVWGQGTTVTVSS VL: DIVMTQSPLSLPVTPGEPASISCKSSQSLLFSNGYKFLDWYLQRPGQSPQLLIYLGSYRASGVPDRFSGSGSGTDFTLKISRVEAEDVGLYYCMQALQTPPTFGQGTKVEIK	–	–	–	–	–	binding result [14]: binds
C33B1495 (antibody, V domains shown, also called sCD33B1495) VH: EVQLVESGGGLVQPGGSLRLSCTASGFTFSSYWMSWVRQAPGKGLDWVANIKRDGSEKHYVDSVKGRFTISRDNAKNSLYLQMNSLRAEDSAVYYCTRDYGYFDYWGQGTLVTVSS VL: DIQLTQSPSFLSASVGDRVTITCRASQGISSYLAWYQQKPGKAPKVLIYAASTLQSGVPSRFSGSGSGTEFTLTISSLQPEDFATYFCQQLNSYPVTFGGGTKVEIK	–	–	–	–	–	binding result [14]: binds
C33B1517 (antibody, V domains shown) VH: QVQLQESGPGLVKPSETLSLTCSVSGASIRNYYWSWIRQTAGKGLEWLGHIYSTGNIHYNPSLKSRVTMSVDTSNNQFSLKLRSVTAADTAVYYCARDNGAALFDYWGQGTLVTVSS VL: not shown	4.44	1.4	10.6	–	–	binding result [2]: no binding (tested: 40 nM-1.6 nM CD33 antigen)
C33B1522 (antibody, V domains shown) VH: QVQLQESGPGLVKPSETLSLTCTVSGGSISSYYWGWIRQPPGKGLEWIGYIYYSGSTNYNPSLKSRVTISVDTSKNQFSLKLSSVTAADTAVYYCARMWEILGFDPWGQGTLVTVS VL: not shown	> 10	–	32.7	–	–	EC50 [5]: 73.4 nM; binding result [2]: no binding (tested: 40 nM-1.6 nM CD33 antigen)
C33B1601 (antibody, V domains shown) VH: EVQLVESGGGLVRPGGSLKLSCAASGFTFSNYAMSWVRQTPEKRLEWVAGISNSGYSLYYPDTLKGRFTISRDNARNTLYLQMISLRSEDTAMYYCARDGGSYPYAMDYWGHGTSVTVSS VL: DIVMTQSQKFMSTSVGDRVSVTCKASQNVGTYVAWYQQKPGHSPKALIYSASYRYSGVPDRFTGSGSGTDFTLTISNVQSEDLADYFCQQYKSYPLTFGAGTKLELK	1.1	–	–	–	–	Kd [2]: 6.8 nM
C33B806.006 (antibody, V domains shown) VH: QLQLQESGPGLVKPSETLSLTCTVSGGSISSSSYYWGWIRQPPGKGLDWIGSINYSGSTYYNPSLKSRVTISVDTSKIQFSLKLRSVTAADTAVYYCARLDGYESPFDYWGQGTLVTVSS VL: DIQMTQSPSSVSASVGDRVTITCRASQGISSWLAWYQQKPGKAPKLLIYAASSLQSGVPSRFSGSGSGTDFTLTISSLQPEDFATYYCQQANSFPFTFGPGTKVDIK	–	15.3	35.6	–	–	EC50 [5]: 0.13 nM; EC50 (read off the curve) [7]: ~2 µg/mL

Second part, led by results:

Kd [1] [nM]	EC50 [3] [nM]	EC50 [4] [nM]	Kd [8] [nM]	Kd [9] [nM]	Binder	further results
–	–	–	0.847	3.38	C33B1780 (llama vHH on mono-Fc backbone) (Fc fusion, not shown: mono-Fc backbone) EVQLVESGGGLVQPGGSLRLSCAVFGFSLSDYAIGWFRQAPGKEREKVSCISESDGRTYLSDSVKSRFTISRDNGKNTVYLQMNNLKPDDTGVYYCATVDQAISESSYHCEKGFGSWGQGTQVTVSS	koff [10]: 0.00117 s⁻¹; kon [10]: 1.38e+06 M⁻¹ s⁻¹; kon [11]: 962000 M⁻¹ s⁻¹
–	–	–	0.67	3.03	C33B1789 (llama vHH on mono-Fc backbone) (Fc fusion, not shown: mono-Fc backbone) QVQLVESGGGLVQAGGSLRLSCAVFGFSLSDYAIGWFRQAPGKEREKVSCISESDGRTYLSDSVKSRFTISRDNGKNTVYLQMNNLKPDDTGVYYCATVDQAISESSYHCEKGFGSWGQGTQVTVSS	–
–	–	–	0.661	3.31	C33B1785 (llama vHH on mono-Fc backbone) (Fc fusion, not shown: mono-Fc backbone) QVQLVESGGGSVQPGGSLRLSCAVFGFSLSDYAIGWFRQAPGKEREKVSCISESDGRTYLSDSVKSRFTISRDNGKNTVYLQMNNLKPDDTGVYYCATVDQAISESSYHCEKGFGSWGQGTQVTVSS	koff [12]: 0.0034 s⁻¹; kon [12]: 1.03e+06 M⁻¹ s⁻¹; koff [13]: 0.000928 s⁻¹; kon [13]: 1.4e+06 M⁻¹ s⁻¹
–	–	–	2.21	0.0559	C33B1781 (llama vHH on mono-Fc backbone) (Fc fusion, not shown: mono-Fc backbone) EVQVVESGGGLVQGGGSLRLSCAASGSIFSINAMGWYHQAPGKQRELVARITGGGATDYVDSVKGRFTISLDSAKSTVYLQMNSLKPEDTAVYHCYADLVTRVGSDLLYDDYWGQGTQVTVSS	–
1.49	–	–	–	–	C33B1607 (antibody, V domains shown) VH: EVQLQQSGPELVKPGSSVKISCKASGYTFTDYNINWVKQSHGKNLEWIGTINPNNGVTFYNQRFKGQATLTVDKSSSTAYMELRSLTSEDSAVYYCSRDGYDTYYAMDYWGQGTTLTVSS VL: DIVMTQSHKFMSTSVGDRVSITCKASQDVRTAEAWYQQKPGQSPKLLIYSASNRYTGVPDRFTGSGSGTDFTFTISSVQAEDLAVYYCQQYYTTPRTFGGGTKLEIK	binding result [2]: no binding (tested: 40 nM-1.6 nM CD33 antigen)
